Test results: patent publication US20250145711A1 (Janssen / Centocor, published 2025)

Tests used:
recombinant human PSMA = biological target: T1, recombinant human PSMA (human, UniProt Q04609 44-750); assay: SPR (Biacore 8K), antibody captured on anti-Fc, PSMA in solution
T1 construct: also called hu PSMA; prostate-specific membrane antigen
Description: The binding affinity of anti-PSMA to the recombinant human, cynomolgus or mouse PSMA was determined by surface plasmon resonance (SPR) using a Biacore 8K instrument\. […] The association and dissociation were monitored for 3 and 15 minutes, respectively, using a flow rate of 50 μL/min. Raw binding data was referenced by subtracting the analyte binding signals from blanks and analyzed using a 1:1 Langmuir binding model using the Biacore Insight evaluation software to obtain the kinetics which were used to calculate the binding affinity. The anti-PSMA were captured using an anti-human Fc antibody and the antigens were injected in solution.

[1] = biological target: T2, human PSMA on prostate cancer cell lines (22RV1, C4-2B) (human, UniProt Q04609 1-750); assay: flow cytometry on C4-2B cells
T2 construct: also called PSMA-expressing cell lines
T2 sequence (Q04609 whole entry): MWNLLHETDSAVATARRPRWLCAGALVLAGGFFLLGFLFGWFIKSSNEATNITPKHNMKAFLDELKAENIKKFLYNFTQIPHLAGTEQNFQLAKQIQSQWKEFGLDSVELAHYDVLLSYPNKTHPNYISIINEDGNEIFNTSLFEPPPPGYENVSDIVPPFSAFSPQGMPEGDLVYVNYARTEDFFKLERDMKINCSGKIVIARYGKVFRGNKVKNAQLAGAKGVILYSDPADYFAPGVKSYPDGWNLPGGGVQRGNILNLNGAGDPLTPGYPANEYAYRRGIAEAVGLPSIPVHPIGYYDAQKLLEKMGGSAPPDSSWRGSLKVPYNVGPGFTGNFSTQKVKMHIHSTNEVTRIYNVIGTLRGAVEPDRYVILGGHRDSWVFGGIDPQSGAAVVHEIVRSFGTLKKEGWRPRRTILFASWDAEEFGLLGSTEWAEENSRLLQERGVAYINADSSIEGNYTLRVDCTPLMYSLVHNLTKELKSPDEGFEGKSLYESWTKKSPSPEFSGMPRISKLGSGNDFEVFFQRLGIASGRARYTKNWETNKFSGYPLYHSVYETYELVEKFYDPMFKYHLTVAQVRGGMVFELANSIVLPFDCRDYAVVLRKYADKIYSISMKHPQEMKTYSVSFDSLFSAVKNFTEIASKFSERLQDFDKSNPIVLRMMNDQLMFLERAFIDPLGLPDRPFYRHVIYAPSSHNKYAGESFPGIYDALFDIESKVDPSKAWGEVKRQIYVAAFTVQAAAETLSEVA
Description: (§1) 22RV1 and C4-2B cells were plated at 50,000 cells per well in 50 μl of assay medium (RPMI, 10% HI FBS) in V bottom plates. Serial dilutions of antibodies were prepared in assay medium with 50 μl of antibody dilutions added to the plates containing cells. The plates were incubated for 60 min at 37° C. at which time 100 μl of staining buffer (Becton Dickinson Cat #554657) was added to all wells of each plate. The plates were centrifuged at 300×G for 5 minutes and the medium was removed from the wells. 200 μl of staining buffer was added to all wells of each plate. The plates were centrifuged at 300× G for 5 minutes and the medium was removed from the wells. 50 μl of 2 μg/ml AlexaFluor647-labeled goat anti-human Fc was added to all wells of the plates and the plates were incubated for 30 minutes at 4° C. 150 μl of staining buffer was added to all wells of each plate. The plates were centrifuged at 300× G for 5 minutes and the medium was removed from the wells.

[2] = biological target: T2, human PSMA on prostate cancer cell …; assay: flow cytometry on 22RV1 cells
Description: as §1

T1 sequence (Q04609 44-750 limits assumed): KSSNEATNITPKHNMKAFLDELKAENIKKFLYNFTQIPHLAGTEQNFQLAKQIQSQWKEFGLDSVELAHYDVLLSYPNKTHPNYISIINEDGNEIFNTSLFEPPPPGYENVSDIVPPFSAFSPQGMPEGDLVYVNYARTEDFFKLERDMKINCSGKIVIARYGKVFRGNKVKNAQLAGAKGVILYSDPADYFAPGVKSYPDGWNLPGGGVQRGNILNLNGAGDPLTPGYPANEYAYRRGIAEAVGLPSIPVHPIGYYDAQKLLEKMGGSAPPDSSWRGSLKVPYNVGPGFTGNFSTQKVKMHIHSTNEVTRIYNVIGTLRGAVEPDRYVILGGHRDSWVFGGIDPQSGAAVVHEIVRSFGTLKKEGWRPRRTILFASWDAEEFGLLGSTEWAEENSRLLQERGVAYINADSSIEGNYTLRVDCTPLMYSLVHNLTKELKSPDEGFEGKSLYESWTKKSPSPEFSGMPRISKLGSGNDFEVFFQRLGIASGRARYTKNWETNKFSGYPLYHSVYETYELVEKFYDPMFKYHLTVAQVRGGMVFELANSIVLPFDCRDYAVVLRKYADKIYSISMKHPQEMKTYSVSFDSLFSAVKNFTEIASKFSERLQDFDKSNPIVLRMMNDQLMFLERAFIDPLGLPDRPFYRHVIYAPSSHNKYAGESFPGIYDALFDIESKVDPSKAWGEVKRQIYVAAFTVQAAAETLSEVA

Binder | Kd (recombinant human PSMA) [nM] | EC50 [1] [nM] | EC50 [2] [nM]
PS3B926 (bispecific antibody, human IgG1, kappa, lambda, L234A L235A, FAB-A: CD3B2183 (CD3W245); FAB-B: PSMB891) heavy 1: EVQLVESGGGLVKPGGSLRLSCAASGFTFSRYNMNWVRQAPGKGLEWVSSISTSSNYIYYADSVKGRFTFSRDNAKNSLDLQMSGLRAEDTAIYYCTRGWGPFDYWGQGTLVTVSSASTKGPSVFPLAPSSKSTSGGTAALGCLVKDYFPEPVTVSWNSGALTSGVHTFPAVLQSSGLYSLSSVVTVPSSSLGTQTYICNVNHKPSNTKVDKKVEPKSCDKTHTCPPCPAPEAAGGPSVFLFPPKPKDTLMISRTPEVTCVVVSVSHEDPEVKFNWYVDGVEVHNAKTKPREEQYNSTYRVVSVLTVLHQDWLNGKEYKCKVSNKALPAPIEKTISKAKGQPREPQVYTLPPSREEMTKNQVSLTCLVKGFYPSDIAVEWESNGQPENNYKTTPPVLDSDGSFLLYSKLTVDKSRWQQGNVFSCSVMHEALHNHYTQKSLSLSP light 1: DIQMTQSPSSLSASVGDRVTITCRARQSIGTAIHWYQQKPGKAPKLLIKYASESISGVPSRFSGSGSGTDFTLTISSLQPEDFATYYCQQSGSWPYTFGQGTKLEIKRTVAAPSVFIFPPSDEQLKSGTASVVCLLNNFYPREAKVQWKVDNALQSGNSQESVTEQDSKDSTYSLSSTLTLSKADYEKHKVYACEVTHQGLSSPVTKSFNRGEC heavy 2: not shown light 2: not shown | ≤ 0.253 | 4.55 | 2.9
PS3B932 (bispecific antibody, human IgG1, kappa, lambda, L234A L235A, FAB-A: CD3B2183 (CD3W245); FAB-B: PSMB895) heavy 1: EVQLVESGGGLVKPGGSLRLSCAASGFTFSRYNMNWVRQAPGKGLEWVSSISTSSNYIYYADSVKGRFTFSRDNAKNSLDLQMSGLRAEDTAIYYCTRGWGPFDYWGQGTLVTVSSASTKGPSVFPLAPSSKSTSGGTAALGCLVKDYFPEPVTVSWNSGALTSGVHTFPAVLQSSGLYSLSSVVTVPSSSLGTQTYICNVNHKPSNTKVDKKVEPKSCDKTHTCPPCPAPEAAGGPSVFLFPPKPKDTLMISRTPEVTCVVVSVSHEDPEVKFNWYVDGVEVHNAKTKPREEQYNSTYRVVSVLTVLHQDWLNGKEYKCKVSNKALPAPIEKTISKAKGQPREPQVYTLPPSREEMTKNQVSLTCLVKGFYPSDIAVEWESNGQPENNYKTTPPVLDSDGSFLLYSKLTVDKSRWQQGNVFSCSVMHEALHNHYTQKSLSLSP light 1: DIQMTQSPSSLSASVGDRVTITCRARQSIGTAIHWYQQKPGKAPKLLIKYASESISGVPSRFSGSGSGTDFTLTISSLQPEDFATYYCQQSGSWPYTFGQGTKLEIKRTVAAPSVFIFPPSDEQLKSGTASVVCLLNNFYPREAKVQWKVDNALQSGNSQESVTEQDSKDSTYSLSSTLTLSKADYEKHKVYACEVTHQGLSSPVTKSFNRGEC heavy 2: EVQLVESGGGLVQPGGSLRLSCAASGFTFSSYAMSWVRQAPGKGLEWVSAISGGIGSTYYADSVKGRFTISRDNSKNTLWLQMNSLRAEDTAVYYCAKDGVGATPYYFDYWGQGTLVTVSSASTKGPSVFPLAPSSKSTSGGTAALGCLVKDYFPEPVTVSWNSGALTSGVHTFPAVLQSSGLYSLSSVVTVPSSSLGTQTYICNVNHKPSNTKVDKKVEPKSCDKTHTCPPCPAPEAAGGPSVFLFPPKPKDTLMISRTPEVTCVVVSVSHEDPEVKFNWYVDGVEVHNAKTKPREEQYNSTYRVVSVLTVLHQDWLNGKEYKCKVSNKALPAPIEKTISKAKGQPREPQVYTLPPSREEMTKNQVSLTCLVKGFYPSDIAVEWESNGQPENNYKTTPPVLDSDGSFFLYSRLTVDKSRWQQGNVFSCSVMHEALHNHYTQKSLSLSPG light 2: QSVLTQPPSVSAAPGQKVTISCSGSSSNIGNNYVSWYQQLPGTAPKLLIYDNNKRPSGIPDRFSGSKSGTSATLGITGLQTGDEADYYCGTWDSSLSAYVFGTGTKVTVLGQPKAAPSVTLFPPSSEELQANKATLVCLISDFYPGAVTVAWKADSSPVKAGVETTTPSKQSNNKYAASSYLSLTPEQWKSHRSYSCQVTHEGSTVEKTVAPTECS | 0.787 | 60 | 48.7
PS3B925 (bispecific antibody, human IgG1, kappa, lambda, L234A L235A, FAB-A: CD3B2183 (CD3W245); FAB-B: PSMB899) heavy 1: EVQLVESGGGLVKPGGSLRLSCAASGFTFSRYNMNWVRQAPGKGLEWVSSISTSSNYIYYADSVKGRFTFSRDNAKNSLDLQMSGLRAEDTAIYYCTRGWGPFDYWGQGTLVTVSSASTKGPSVFPLAPSSKSTSGGTAALGCLVKDYFPEPVTVSWNSGALTSGVHTFPAVLQSSGLYSLSSVVTVPSSSLGTQTYICNVNHKPSNTKVDKKVEPKSCDKTHTCPPCPAPEAAGGPSVFLFPPKPKDTLMISRTPEVTCVVVSVSHEDPEVKFNWYVDGVEVHNAKTKPREEQYNSTYRVVSVLTVLHQDWLNGKEYKCKVSNKALPAPIEKTISKAKGQPREPQVYTLPPSREEMTKNQVSLTCLVKGFYPSDIAVEWESNGQPENNYKTTPPVLDSDGSFLLYSKLTVDKSRWQQGNVFSCSVMHEALHNHYTQKSLSLSP light 1: DIQMTQSPSSLSASVGDRVTITCRARQSIGTAIHWYQQKPGKAPKLLIKYASESISGVPSRFSGSGSGTDFTLTISSLQPEDFATYYCQQSGSWPYTFGQGTKLEIKRTVAAPSVFIFPPSDEQLKSGTASVVCLLNNFYPREAKVQWKVDNALQSGNSQESVTEQDSKDSTYSLSSTLTLSKADYEKHKVYACEVTHQGLSSPVTKSFNRGEC heavy 2: EVQLVESGGGLVQPGGSLRLSCTASGFIFSSYAMSWVRQAPGKGLEWVSAISGGYGAPYYADTVKGRFTISRDNSKNTLYLQMNSLRAEDTAVYYCAKDGVGATPYYFDDWGQGILVTVSSASTKGPSVFPLAPSSKSTSGGTAALGCLVKDYFPEPVTVSWNSGALTSGVHTFPAVLQSSGLYSLSSVVTVPSSSLGTQTYICNVNHKPSNTKVDKKVEPKSCDKTHTCPPCPAPEAAGGPSVFLFPPKPKDTLMISRTPEVTCVVVSVSHEDPEVKFNWYVDGVEVHNAKTKPREEQYNSTYRVVSVLTVLHQDWLNGKEYKCKVSNKALPAPIEKTISKAKGQPREPQVYTLPPSREEMTKNQVSLTCLVKGFYPSDIAVEWESNGQPENNYKTTPPVLDSDGSFFLYSRLTVDKSRWQQGNVFSCSVMHEALHNHYTQKSLSLSPG light 2: QSVLTQPPSVSAAPGQKVTISCSGSSSNIGNNYVSWYQQLPGTAPKLLIFDNNKRPSGIPDRFSGSKSGTSATLGITGLQTGDEADYYCGTWDSSLSAYVFGTGTKVTVLGQPKAAPSVTLFPPSSEELQANKATLVCLISDFYPGAVTVAWKADSSPVKAGVETTTPSKQSNNKYAASSYLSLTPEQWKSHRSYSCQVTHEGSTVEKTVAPTECS | 0.169 | 11.7 | 21.2

Continued, values first:

Kd (recombinant human PSMA) [nM] | EC50 [1] [nM] | EC50 [2] [nM] | Binder
2.37 | 60 | 60 | PS3B928 (bispecific antibody, human IgG1, kappa, lambda, L234A L235A, FAB-A: CD3B2183 (CD3W245); FAB-B: PSMB892) heavy 1: EVQLVESGGGLVKPGGSLRLSCAASGFTFSRYNMNWVRQAPGKGLEWVSSISTSSNYIYYADSVKGRFTFSRDNAKNSLDLQMSGLRAEDTAIYYCTRGWGPFDYWGQGTLVTVSSASTKGPSVFPLAPSSKSTSGGTAALGCLVKDYFPEPVTVSWNSGALTSGVHTFPAVLQSSGLYSLSSVVTVPSSSLGTQTYICNVNHKPSNTKVDKKVEPKSCDKTHTCPPCPAPEAAGGPSVFLFPPKPKDTLMISRTPEVTCVVVSVSHEDPEVKFNWYVDGVEVHNAKTKPREEQYNSTYRVVSVLTVLHQDWLNGKEYKCKVSNKALPAPIEKTISKAKGQPREPQVYTLPPSREEMTKNQVSLTCLVKGFYPSDIAVEWESNGQPENNYKTTPPVLDSDGSFLLYSKLTVDKSRWQQGNVFSCSVMHEALHNHYTQKSLSLSP light 1: DIQMTQSPSSLSASVGDRVTITCRARQSIGTAIHWYQQKPGKAPKLLIKYASESISGVPSRFSGSGSGTDFTLTISSLQPEDFATYYCQQSGSWPYTFGQGTKLEIKRTVAAPSVFIFPPSDEQLKSGTASVVCLLNNFYPREAKVQWKVDNALQSGNSQESVTEQDSKDSTYSLSSTLTLSKADYEKHKVYACEVTHQGLSSPVTKSFNRGEC heavy 2: not shown light 2: not shown
1.44 | 60 | 60 | PS3B933 (bispecific antibody, human IgG1, kappa, lambda, L234A L235A, FAB-A: CD3B2183 (CD3W245); FAB-B: PSMB897) heavy 1: EVQLVESGGGLVKPGGSLRLSCAASGFTFSRYNMNWVRQAPGKGLEWVSSISTSSNYIYYADSVKGRFTFSRDNAKNSLDLQMSGLRAEDTAIYYCTRGWGPFDYWGQGTLVTVSSASTKGPSVFPLAPSSKSTSGGTAALGCLVKDYFPEPVTVSWNSGALTSGVHTFPAVLQSSGLYSLSSVVTVPSSSLGTQTYICNVNHKPSNTKVDKKVEPKSCDKTHTCPPCPAPEAAGGPSVFLFPPKPKDTLMISRTPEVTCVVVSVSHEDPEVKFNWYVDGVEVHNAKTKPREEQYNSTYRVVSVLTVLHQDWLNGKEYKCKVSNKALPAPIEKTISKAKGQPREPQVYTLPPSREEMTKNQVSLTCLVKGFYPSDIAVEWESNGQPENNYKTTPPVLDSDGSFLLYSKLTVDKSRWQQGNVFSCSVMHEALHNHYTQKSLSLSP light 1: DIQMTQSPSSLSASVGDRVTITCRARQSIGTAIHWYQQKPGKAPKLLIKYASESISGVPSRFSGSGSGTDFTLTISSLQPEDFATYYCQQSGSWPYTFGQGTKLEIKRTVAAPSVFIFPPSDEQLKSGTASVVCLLNNFYPREAKVQWKVDNALQSGNSQESVTEQDSKDSTYSLSSTLTLSKADYEKHKVYACEVTHQGLSSPVTKSFNRGEC heavy 2: EVQLVESGGGLVQPGGSLRLSCAASGFTFSSYAMSWVRQAPGKGLEWVSAISGGSGSTYYADSVKGRFTISRDNSKNTLYLQMNSLRAEDSAVYYCAKDGVGATPYYFDYWGQGTLVTVSSASTKGPSVFPLAPSSKSTSGGTAALGCLVKDYFPEPVTVSWNSGALTSGVHTFPAVLQSSGLYSLSSVVTVPSSSLGTQTYICNVNHKPSNTKVDKKVEPKSCDKTHTCPPCPAPEAAGGPSVFLFPPKPKDTLMISRTPEVTCVVVSVSHEDPEVKFNWYVDGVEVHNAKTKPREEQYNSTYRVVSVLTVLHQDWLNGKEYKCKVSNKALPAPIEKTISKAKGQPREPQVYTLPPSREEMTKNQVSLTCLVKGFYPSDIAVEWESNGQPENNYKTTPPVLDSDGSFFLYSRLTVDKSRWQQGNVFSCSVMHEALHNHYTQKSLSLSPG light 2: QSVLTQPPSVSAAPGQKVTISCSGSSSNIGNNYVSWYQQLPGTAPKLLIYDNNKRPSGIPDRFSGSKSGTSATLGITGLQTGDEADYYCGTWDSSLSAYVFGTGTKVTVLGQPKAAPSVTLFPPSSEELQANKATLVCLISDFYPGAVTVAWKADSSPVKAGVETTTPSKQSNNKYAASSYLSLTPEQWKSHRSYSCQVTHEGSTVEKTVAPTECS
